Earlier results in patent publication US20150174267A1, “COMPOSITIONS AND METHODS FOR THE TRANSPORT OF THERAPEUTIC AGENTS” (Angiochem Inc., priority 2009, published 2015).
Where no end group is shown, it is not given here.

Columns and labels:
[1] = for efficient transport across the BBB: efficiently = at least as efficiently as Angiopep-6
[2] = test system: liver, lung, kidney, spleen, and muscle cells

Compound	efficient transport across the BBB [1]	further results
Angiopep-4b: targeting polypeptide of Table 1, SEQ ID NO:109 (RFFYGGSRGKRNNFKTEEY; not fully specified (N-terminus))	cross the mammalian BBB efficiently	–
COc1cc([C@@H]2c3cc4c(cc3[C@@H](O[C@@H]3O[C@@H]5CO[C@@H](C)O[C@H]5[C@H](O)[C@H]3O)[C@H]3COC(=O)[C@H]23)OCO4)cc(OC)c1OP(=O)(O)O [Etoposide phosphate, etoposide phosphate]	–	water solubility compared to etoposide: improved water solubility
Angiopep-6: targeting polypeptide of Table 1, SEQ ID NO:111 (TFFYGGSRGKRNNFRTEEY)	cross the mammalian BBB efficiently	transport across the BBB relative to that of Angiopep-1 ([1]; relative to Angiopep-1 (250 nM), in situ brain perfusion assay of US 2009/0016959): 38.5%
Angiopep-2: targeting polypeptide of Table 1, SEQ ID NO:97	cross the mammalian BBB efficiently	–
Angiopep-4a: targeting polypeptide of Table 1, SEQ ID NO:108 (RFFYGGSRGKRNNFKTEEY)	cross the mammalian BBB efficiently	–
Angiopep-5: targeting polypeptide of Table 1, SEQ ID NO:110 (RFFYGGSRGKRNNFRTEEY; not fully specified (N-terminus))	cross the mammalian BBB efficiently	–
Angiopep-7: targeting polypeptide of Table 1, SEQ ID NO:112 (TFFYGGSRGRRNNFRTEEY)	does not cross the BBB efficiently	efficient transport into particular cell types [2]: efficiently transported into liver, lung, kidney, spleen, and muscle cells
Angiopep-1: targeting polypeptide of Table 1, SEQ ID NO:67 (TFFYGGCRGKRNNFKTEEY; not fully specified (C-terminus))	cross the mammalian BBB efficiently	–
